Experimental findings from US20230355720A1, “PHARMACEUTICAL COMPOSITION FOR PREVENTING OR TREATING BONE DISEASES, COMPRISING TRIPLE AGONIST OR CONJUGATE THEREOF HAVING ACTIVITY WITH RESPECT TO ALL OF GLUCAGON, GLP-1 AND GLP RECEPTORS” (HANMI PHARM. CO., LTD., priority 2020, published 2023) are described below.

Bridge positions count the residues as written; N and C are the ends. Square brackets hold non-standard residues; d marks the D form. Ends that are not written are not given here. * marks the point of attachment. Acetyl(2-(4-imidazolyl)) = O=C(Cc1c[nH]cn1)*; Aib = CC(C)(N)C(=O)O

What all share (assay): cell-based or functional assay
One test has as its target human GCG receptor (human, UniProt P47871 26-477).
For a further test, the target named is human GLP-1 receptor (human, UniProt P43220 24-463).
Another test addresses T1, human GIP receptor (human, UniProt P48546 22-466).
T1 sequence (looked up): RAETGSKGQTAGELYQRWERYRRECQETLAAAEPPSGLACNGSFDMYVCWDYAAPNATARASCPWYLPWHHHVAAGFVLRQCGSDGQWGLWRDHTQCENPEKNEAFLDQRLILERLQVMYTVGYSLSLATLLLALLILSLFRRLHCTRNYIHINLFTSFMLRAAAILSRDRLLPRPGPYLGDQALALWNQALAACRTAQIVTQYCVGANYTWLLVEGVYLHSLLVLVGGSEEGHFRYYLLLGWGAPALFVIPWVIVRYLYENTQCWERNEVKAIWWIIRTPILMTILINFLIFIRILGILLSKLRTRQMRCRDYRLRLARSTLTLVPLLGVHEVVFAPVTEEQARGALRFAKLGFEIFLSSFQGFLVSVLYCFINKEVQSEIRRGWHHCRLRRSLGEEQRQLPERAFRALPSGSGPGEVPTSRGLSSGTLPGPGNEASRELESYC

Chain of human GCG receptor (P47871 26-477): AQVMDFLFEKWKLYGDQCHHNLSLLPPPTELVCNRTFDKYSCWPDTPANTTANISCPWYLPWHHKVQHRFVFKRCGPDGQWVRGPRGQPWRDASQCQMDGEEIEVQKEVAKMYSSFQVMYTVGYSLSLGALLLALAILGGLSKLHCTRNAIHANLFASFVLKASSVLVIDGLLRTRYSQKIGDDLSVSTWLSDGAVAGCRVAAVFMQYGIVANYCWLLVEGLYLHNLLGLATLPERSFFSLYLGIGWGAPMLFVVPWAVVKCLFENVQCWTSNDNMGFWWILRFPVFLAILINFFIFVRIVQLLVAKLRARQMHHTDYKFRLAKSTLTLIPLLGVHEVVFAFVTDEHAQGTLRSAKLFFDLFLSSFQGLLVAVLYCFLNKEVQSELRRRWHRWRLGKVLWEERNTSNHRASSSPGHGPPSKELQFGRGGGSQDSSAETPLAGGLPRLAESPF

B1: triple agonist of SEQ ID NO: 27 (peptide)
peptide: H[Aib]QGTFTSDYSKYLDERACQDFVQWLLDQGGPSSGAPPPS
modifications: not fully specified
With B1, the “In vitro activity (%) compared with native peptide, vs Glucagon” value (shortened to “In vitro activity (%) … vs Glucagon”) with human GCG receptor came to 0.8%. Besides, in the test with human GLP-1 receptor, the “In vitro activity (%) compared with native peptide, vs GLP-1” value (shortened to “In vitro activity (%) … vs GLP-1”) is 83.1%. Further, the “In vitro activity (%) compared with native peptide, vs GIP” value (“In vitro activity (%) … vs GIP” below) with human GIP receptor was found to be 0.9%.

B2: triple agonist of SEQ ID NO: 2 (peptide)
peptide: H[Aib]QGTFTSDVSSYLDGQAQKEFIAWLVKGC
modifications: not fully specified
As for B2, the “In vitro activity (%) … vs Glucagon” value with human GCG receptor is less than 0.1%. The “In vitro activity (%) … vs GLP-1” value in the test with human GLP-1 receptor amounted to 5.9%. Further, in the test with human GIP receptor, the “In vitro activity (%) … vs GIP” value was less than 0.1%.

B3: triple agonist of SEQ ID NO: 17 (peptide)
peptide: [Acetyl(2-(4-imidazolyl))]GQGTFTSDLSKQMDEERAREFIEWLLAQKPSSGAPPPSHG
modifications: not fully specified
With B3, the “In vitro activity (%) … vs Glucagon” value in the test with human GCG receptor is less than 0.1%. Further, the “In vitro activity (%) … vs GLP-1” value in the test with human GLP-1 receptor was found to be 0.2%. The “In vitro activity (%) … vs GIP” value with human GIP receptor is less than 0.1%.

B4: triple agonist of SEQ ID NO: 100 (peptide)
peptide: Y[Aib]QGTFTSDYSKALDEKAAKEFVQWLLDQHPSSGQPPPSC
modifications: bridge 16-20
Consider B4, for which, in the test with human GCG receptor, the “In vitro activity (%) … vs Glucagon” value worked out at 12.7%. Also, in the test with human GLP-1 receptor, the “In vitro activity (%) … vs GLP-1” value worked out at 42.2%. Moreover, in the test with human GIP receptor, the “In vitro activity (%) … vs GIP” value was 118%.

B5: triple agonist of SEQ ID NO: 24 (peptide)
peptide: Y[Aib]QGTFTSDYSKYLDECRAKEFVQWLKNGGPSSGAPPPS
modifications: bridge 16-20
On to B5, for which the “In vitro activity (%) … vs Glucagon” value in the test with human GCG receptor came to 9.3%. In the test with human GLP-1 receptor, the “In vitro activity (%) … vs GLP-1” value was found to be 41.2%. Besides, the “In vitro activity (%) … vs GIP” value with human GIP receptor is less than 0.1%.

B6: triple agonist of SEQ ID NO: 12 (peptide)
peptide: [Acetyl(2-(4-imidazolyl))]GEGTFISDLSKYMDEQAVQLFVEWLMAGGPSSGAPPPSHG
modifications: not fully specified
B6: the “In vitro activity (%) … vs Glucagon” value in the test with human GCG receptor was less than 0.1%. Besides, the “In vitro activity (%) … vs GLP-1” value with human GLP-1 receptor is 0.4%. In addition, in the test with human GIP receptor, the “In vitro activity (%) … vs GIP” value is less than 0.1%.

B7: triple agonist of SEQ ID NO: 13 (peptide)
peptide: [Acetyl(2-(4-imidazolyl))]GEGTFISDYSIQLDEIAVQDFVEWLLAQKPSSGAPPPSHG
B7: the “In vitro activity (%) … vs Glucagon” value with human GCG receptor was less than 0.1%. In addition, in the test with human GLP-1 receptor, the “In vitro activity (%) … vs GLP-1” value is less than 0.1%. For the same molecule, the “In vitro activity (%) … vs GIP” value with human GIP receptor was less than 0.1%.

B8: triple agonist of SEQ ID NO: 16 (peptide)
peptide: [Acetyl(2-(4-imidazolyl))]GQGTFTSDLSKQMDSEAQQLFIEWLKNGGPSSGAPPPSHG
modifications: not fully specified
Consider B8, for which the “In vitro activity (%) … vs Glucagon” value with human GCG receptor was less than 0.1%. In addition, the “In vitro activity (%) … vs GLP-1” value with human GLP-1 receptor came out at 2.1%. The “In vitro activity (%) … vs GIP” value with human GIP receptor was less than 0.1%.

B9: triple agonist of SEQ ID NO: 28 (peptide)
peptide: H[Aib]QGTFTSDYSKYLDEKRAQEFVCWLLAQKGKKNDWKHNIT
modifications: not fully specified
Regarding B9, the “In vitro activity (%) … vs Glucagon” value in the test with human GCG receptor was 1.6%. Moreover, in the test with human GLP-1 receptor, the “In vitro activity (%) … vs GLP-1” value worked out at 17.2%. For the same molecule, the “In vitro activity (%) … vs GIP” value with human GIP receptor was less than 0.1%.

B10: triple agonist of SEQ ID NO: 98 (peptide)
peptide: Y[Aib]QGTFTSDYSKALDEKAAKEFVNWLLDHHPSSGQPPPSC
modifications: bridge 16-20
In the case of B10, the “In vitro activity (%) … vs Glucagon” value in the test with human GCG receptor was 8.2%. For the same molecule, in the test with human GLP-1 receptor, the “In vitro activity (%) … vs GLP-1” value is 28.1%. In addition, the “In vitro activity (%) … vs GIP” value in the test with human GIP receptor is 47.1%.

B11: triple agonist of SEQ ID NO: 102 (peptide)
peptide: Y[Aib]QGTFTSDYSKALDEKAAKDFVNWLLDQHPSSGQPPPSC
modifications: bridge 16-20
As for B11, the “In vitro activity (%) … vs Glucagon” value with human GCG receptor came out at 29.5%. For the same molecule, in the test with human GLP-1 receptor, the “In vitro activity (%) … vs GLP-1” value came to 23.3%. In addition, in the test with human GIP receptor, the “In vitro activity (%) … vs GIP” value was found to be 58%.

B12: triple agonist of SEQ ID NO: 26 (peptide)
peptide: H[Aib]QGTFTSDCSKYLDSRAAQDFVQWLLDGGPSSGAPPPS
modifications: not fully specified
Turning to B12, in the test with human GCG receptor, the “In vitro activity (%) … vs Glucagon” value is 0.2%. The “In vitro activity (%) … vs GLP-1” value with human GLP-1 receptor is 64.5%. Besides, in the test with human GIP receptor, the “In vitro activity (%) … vs GIP” value is less than 0.1%.

B13: triple agonist of SEQ ID NO: 14 (peptide)
peptide: [Acetyl(2-(4-imidazolyl))]GQGTFTSDYSIQLDEIAVRDFVEWLKNGGPSSGAPPPSHG
modifications: not fully specified
Consider B13, for which, in the test with human GCG receptor, the “In vitro activity (%) … vs Glucagon” value was less than 0.1%. Moreover, the “In vitro activity (%) … vs GLP-1” value with human GLP-1 receptor turned out to be 28%. The “In vitro activity (%) … vs GIP” value in the test with human GIP receptor was less than 0.1%.

B14: triple agonist of SEQ ID NO: 21 (peptide)
peptide: Y[Aib]QGTFTSDYSKYLDECRAKEFVQWLLDHHPSSGQPPPS
modifications: bridge 16-20
Turning to B14, the “In vitro activity (%) … vs Glucagon” value with human GCG receptor was 267%. Further, the “In vitro activity (%) … vs GLP-1” value with human GLP-1 receptor was 17.8%. Further, the “In vitro activity (%) … vs GIP” value with human GIP receptor turned out to be 22.7%.

B15: triple agonist of SEQ ID NO: 18 (peptide)
peptide: [Acetyl(2-(4-imidazolyl))]GQGTFTSDLSKQMDSERAREFIEWLKNTGPSSGAPPPSHG
modifications: not fully specified
As for B15, the “In vitro activity (%) … vs Glucagon” value with human GCG receptor is less than 0.1%. In the test with human GLP-1 receptor, the “In vitro activity (%) … vs GLP-1” value was less than 0.1%. Also, the “In vitro activity (%) … vs GIP” value with human GIP receptor is less than 0.1%.

B16: triple agonist of SEQ ID NO: 3 (peptide)
peptide: H[Aib]QGTFTSDVSSYLLGQAAKQFIAWLVKGGGPSSGAPPPSC
modifications: not fully specified
On to B16, for which the “In vitro activity (%) … vs Glucagon” value with human GCG receptor is less than 0.1%. In addition, the “In vitro activity (%) … vs GLP-1” value with human GLP-1 receptor stood at 1.8%. Besides, the “In vitro activity (%) … vs GIP” value with human GIP receptor is less than 0.1%.

B17: triple agonist of SEQ ID NO: 19 (peptide)
peptide: [Acetyl(2-(4-imidazolyl))]GQGTFTSDLSIQYDSEHQRDFIEWLKDTGPSSGAPPPSHG
modifications: not fully specified
On to B17, for which the “In vitro activity (%) … vs Glucagon” value with human GCG receptor is less than 0.1%. Moreover, the “In vitro activity (%) … vs GLP-1” value with human GLP-1 receptor was less than 0.1%. Besides, the “In vitro activity (%) … vs GIP” value in the test with human GIP receptor was less than 0.1%.

B18: triple agonist of SEQ ID NO: 11 (peptide)
peptide: [Acetyl(2-(4-imidazolyl))]GEGTFTSDLSKYLDSRRQQLFVQWLKAGGPSSGAPPPSHG
modifications: not fully specified
For the molecule B18, the “In vitro activity (%) … vs Glucagon” value in the test with human GCG receptor was less than 0.1%. Further, in the test with human GLP-1 receptor, the “In vitro activity (%) … vs GLP-1” value amounted to 1.4%. Further, the “In vitro activity (%) … vs GIP” value with human GIP receptor was less than 0.1%.

B19: triple agonist of SEQ ID NO: 101 (peptide)
peptide: Y[Aib]QGTFTSDYSKALDEKAAKEFVNWLLDQHPSSGQPPPSC
modifications: bridge 16-20
Regarding B19, the “In vitro activity (%) … vs Glucagon” value in the test with human GCG receptor came to 13.9%. Moreover, the “In vitro activity (%) … vs GLP-1” value in the test with human GLP-1 receptor was 23.2%. The “In vitro activity (%) … vs GIP” value with human GIP receptor was 40.1%.

B20: triple agonist of SEQ ID NO: 23 (peptide)
peptide: Y[Aib]QGTFTSDYSKYLDECRAKEFVQWLLAQKGKKNDWKHNIT
modifications: bridge 16-20; not fully specified
Take B20: the “In vitro activity (%) … vs Glucagon” value with human GCG receptor worked out at 9.3%. Moreover, the “In vitro activity (%) … vs GLP-1” value with human GLP-1 receptor was determined as 4.01%. Further, the “In vitro activity (%) … vs GIP” value in the test with human GIP receptor was less than 0.1%.

B21: triple agonist of SEQ ID NO: 20 (peptide)
peptide: [Acetyl(2-(4-imidazolyl))]GQGTFTSDLSIQYEEEAQQDFVEWLKDTGPSSGAPPPSHG
modifications: not fully specified
With B21, in the test with human GCG receptor, the “In vitro activity (%) … vs Glucagon” value is less than 0.1%. The “In vitro activity (%) … vs GLP-1” value with human GLP-1 receptor is less than 0.1%. In addition, in the test with human GIP receptor, the “In vitro activity (%) … vs GIP” value is less than 0.1%.

B22: triple agonist of SEQ ID NO: 99 (peptide)
peptide: Y[Aib]QGTFTSDYSKALDEKAAKDFVNWLLDHHPSSGQPPPSC
modifications: bridge 16-20
Take B22: the “In vitro activity (%) … vs Glucagon” value in the test with human GCG receptor worked out at 14.9%. Besides, the “In vitro activity (%) … vs GLP-1” value with human GLP-1 receptor is 20.9%. Also, the “In vitro activity (%) … vs GIP” value with human GIP receptor came out at 57.7%.

B23: triple agonist of SEQ ID NO: 22 (peptide)
peptide: Y[Aib]QGTFTSDYSKCLDEKRAKEFVQWLLDHHPSSGQPPPS
modifications: bridge 16-20
For the molecule B23, the “In vitro activity (%) … vs Glucagon” value with human GCG receptor stood at 140%. Also, in the test with human GLP-1 receptor, the “In vitro activity (%) … vs GLP-1” value turned out to be 20.1%. Further, the “In vitro activity (%) … vs GIP” value with human GIP receptor was found to be 59.7%.

B24: triple agonist of SEQ ID NO: 25 (peptide)
peptide: H[Aib]QGTFTSDCSKYLDERAAQDFVQWLLDGGPSSGAPPPS
modifications: not fully specified
For the molecule B24, the “In vitro activity (%) … vs Glucagon” value with human GCG receptor was 0.1%. Also, in the test with human GLP-1 receptor, the “In vitro activity (%) … vs GLP-1” value stood at 82.6%. Besides, in the test with human GIP receptor, the “In vitro activity (%) … vs GIP” value is less than 0.1%.

B25: triple agonist of SEQ ID NO: 29 (peptide)
peptide: H[Aib]QGTFTSDYSKYLDEKAAKEFVQWLLNTC
modifications: bridge 16-20; not fully specified
Regarding B25, the “In vitro activity (%) … vs Glucagon” value with human GCG receptor was 6%. Besides, the “In vitro activity (%) … vs GLP-1” value with human GLP-1 receptor is 38.5%. The “In vitro activity (%) … vs GIP” value with human GIP receptor was less than 0.1%.
